Laboratory results published in patent publication US20250262210A1 (TRUSTEES OF COLUMBIA UNIVERSITY IN THE CITY OF NEW YORK, published 2025).

Tests used:
Experiment in all cases: IP/MS, LZTR1 R810W-FLAG, U87
EPG5 = EPG5 (human, UniProt Q9HCE0 1-2579, limits assumed)
How it was run: (§1)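 Read-out: spectral counts from LC-MS/MS (Orbitrap Fusion) after MaxQuant identification. Variable modifications were Met oxidation, protein N-terminal acetylation and N/Q deamidation.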

NCAPG2 = molecular target: T1, NCAPG2 (human, UniProt Q86XI2 1-1143, limits assumed)
T1 sequence (looked up): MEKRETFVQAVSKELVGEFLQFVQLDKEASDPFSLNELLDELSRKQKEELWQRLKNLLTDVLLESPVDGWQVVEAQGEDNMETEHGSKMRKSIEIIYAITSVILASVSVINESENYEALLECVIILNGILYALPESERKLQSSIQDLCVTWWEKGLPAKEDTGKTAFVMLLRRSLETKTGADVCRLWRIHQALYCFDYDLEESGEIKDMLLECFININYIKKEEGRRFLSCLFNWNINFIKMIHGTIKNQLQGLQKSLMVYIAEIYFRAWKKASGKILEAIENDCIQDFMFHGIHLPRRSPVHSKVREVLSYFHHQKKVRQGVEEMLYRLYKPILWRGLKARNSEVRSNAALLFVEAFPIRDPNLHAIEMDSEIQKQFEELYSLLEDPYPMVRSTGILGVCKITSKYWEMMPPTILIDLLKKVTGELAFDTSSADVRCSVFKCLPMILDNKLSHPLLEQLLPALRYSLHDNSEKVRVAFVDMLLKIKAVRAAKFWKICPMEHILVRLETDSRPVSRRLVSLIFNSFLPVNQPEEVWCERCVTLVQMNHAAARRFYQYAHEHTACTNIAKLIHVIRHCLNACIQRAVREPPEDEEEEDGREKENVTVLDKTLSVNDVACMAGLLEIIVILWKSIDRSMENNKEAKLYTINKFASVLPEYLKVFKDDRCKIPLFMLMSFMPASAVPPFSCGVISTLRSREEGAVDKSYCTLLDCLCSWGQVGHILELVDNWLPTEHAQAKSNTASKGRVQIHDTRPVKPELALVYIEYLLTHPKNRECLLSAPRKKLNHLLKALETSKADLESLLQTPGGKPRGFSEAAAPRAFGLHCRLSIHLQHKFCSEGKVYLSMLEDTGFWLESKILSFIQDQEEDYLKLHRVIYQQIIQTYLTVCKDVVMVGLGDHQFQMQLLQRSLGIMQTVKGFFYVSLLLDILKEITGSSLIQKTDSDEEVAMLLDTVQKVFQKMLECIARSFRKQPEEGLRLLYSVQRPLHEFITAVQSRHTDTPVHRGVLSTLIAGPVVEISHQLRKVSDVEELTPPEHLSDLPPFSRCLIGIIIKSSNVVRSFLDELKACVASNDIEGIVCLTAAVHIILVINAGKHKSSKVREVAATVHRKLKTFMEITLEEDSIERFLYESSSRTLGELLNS
How it was run: as §1

SMPD4 = molecular target: T2, SMPD4 (human, UniProt Q9NXE4 1-866, limits assumed)
T2 sequence (looked up): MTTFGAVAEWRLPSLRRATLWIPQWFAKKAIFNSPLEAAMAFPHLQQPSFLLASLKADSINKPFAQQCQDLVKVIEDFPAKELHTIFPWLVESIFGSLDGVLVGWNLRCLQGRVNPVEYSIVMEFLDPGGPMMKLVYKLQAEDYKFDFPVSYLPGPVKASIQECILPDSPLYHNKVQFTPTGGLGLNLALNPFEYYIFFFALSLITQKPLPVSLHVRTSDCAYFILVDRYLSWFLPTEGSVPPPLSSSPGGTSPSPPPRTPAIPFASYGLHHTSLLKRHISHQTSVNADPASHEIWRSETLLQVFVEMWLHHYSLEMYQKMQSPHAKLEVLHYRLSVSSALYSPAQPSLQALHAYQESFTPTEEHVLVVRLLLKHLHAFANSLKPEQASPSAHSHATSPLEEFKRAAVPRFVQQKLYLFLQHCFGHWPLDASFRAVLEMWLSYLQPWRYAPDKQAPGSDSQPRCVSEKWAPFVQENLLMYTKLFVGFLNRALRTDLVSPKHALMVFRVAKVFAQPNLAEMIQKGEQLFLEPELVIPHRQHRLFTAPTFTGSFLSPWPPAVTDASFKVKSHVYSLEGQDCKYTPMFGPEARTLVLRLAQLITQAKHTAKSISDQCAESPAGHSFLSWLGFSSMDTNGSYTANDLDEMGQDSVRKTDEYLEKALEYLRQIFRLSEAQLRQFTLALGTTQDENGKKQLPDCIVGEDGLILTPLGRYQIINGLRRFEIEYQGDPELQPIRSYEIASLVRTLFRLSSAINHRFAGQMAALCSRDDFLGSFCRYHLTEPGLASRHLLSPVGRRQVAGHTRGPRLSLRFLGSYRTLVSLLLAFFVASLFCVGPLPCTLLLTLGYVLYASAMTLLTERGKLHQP
How it was run: as §1

URB1 = URB1 (human, UniProt O60287 1-2271)
Chain of URB1 (O60287 whole entry): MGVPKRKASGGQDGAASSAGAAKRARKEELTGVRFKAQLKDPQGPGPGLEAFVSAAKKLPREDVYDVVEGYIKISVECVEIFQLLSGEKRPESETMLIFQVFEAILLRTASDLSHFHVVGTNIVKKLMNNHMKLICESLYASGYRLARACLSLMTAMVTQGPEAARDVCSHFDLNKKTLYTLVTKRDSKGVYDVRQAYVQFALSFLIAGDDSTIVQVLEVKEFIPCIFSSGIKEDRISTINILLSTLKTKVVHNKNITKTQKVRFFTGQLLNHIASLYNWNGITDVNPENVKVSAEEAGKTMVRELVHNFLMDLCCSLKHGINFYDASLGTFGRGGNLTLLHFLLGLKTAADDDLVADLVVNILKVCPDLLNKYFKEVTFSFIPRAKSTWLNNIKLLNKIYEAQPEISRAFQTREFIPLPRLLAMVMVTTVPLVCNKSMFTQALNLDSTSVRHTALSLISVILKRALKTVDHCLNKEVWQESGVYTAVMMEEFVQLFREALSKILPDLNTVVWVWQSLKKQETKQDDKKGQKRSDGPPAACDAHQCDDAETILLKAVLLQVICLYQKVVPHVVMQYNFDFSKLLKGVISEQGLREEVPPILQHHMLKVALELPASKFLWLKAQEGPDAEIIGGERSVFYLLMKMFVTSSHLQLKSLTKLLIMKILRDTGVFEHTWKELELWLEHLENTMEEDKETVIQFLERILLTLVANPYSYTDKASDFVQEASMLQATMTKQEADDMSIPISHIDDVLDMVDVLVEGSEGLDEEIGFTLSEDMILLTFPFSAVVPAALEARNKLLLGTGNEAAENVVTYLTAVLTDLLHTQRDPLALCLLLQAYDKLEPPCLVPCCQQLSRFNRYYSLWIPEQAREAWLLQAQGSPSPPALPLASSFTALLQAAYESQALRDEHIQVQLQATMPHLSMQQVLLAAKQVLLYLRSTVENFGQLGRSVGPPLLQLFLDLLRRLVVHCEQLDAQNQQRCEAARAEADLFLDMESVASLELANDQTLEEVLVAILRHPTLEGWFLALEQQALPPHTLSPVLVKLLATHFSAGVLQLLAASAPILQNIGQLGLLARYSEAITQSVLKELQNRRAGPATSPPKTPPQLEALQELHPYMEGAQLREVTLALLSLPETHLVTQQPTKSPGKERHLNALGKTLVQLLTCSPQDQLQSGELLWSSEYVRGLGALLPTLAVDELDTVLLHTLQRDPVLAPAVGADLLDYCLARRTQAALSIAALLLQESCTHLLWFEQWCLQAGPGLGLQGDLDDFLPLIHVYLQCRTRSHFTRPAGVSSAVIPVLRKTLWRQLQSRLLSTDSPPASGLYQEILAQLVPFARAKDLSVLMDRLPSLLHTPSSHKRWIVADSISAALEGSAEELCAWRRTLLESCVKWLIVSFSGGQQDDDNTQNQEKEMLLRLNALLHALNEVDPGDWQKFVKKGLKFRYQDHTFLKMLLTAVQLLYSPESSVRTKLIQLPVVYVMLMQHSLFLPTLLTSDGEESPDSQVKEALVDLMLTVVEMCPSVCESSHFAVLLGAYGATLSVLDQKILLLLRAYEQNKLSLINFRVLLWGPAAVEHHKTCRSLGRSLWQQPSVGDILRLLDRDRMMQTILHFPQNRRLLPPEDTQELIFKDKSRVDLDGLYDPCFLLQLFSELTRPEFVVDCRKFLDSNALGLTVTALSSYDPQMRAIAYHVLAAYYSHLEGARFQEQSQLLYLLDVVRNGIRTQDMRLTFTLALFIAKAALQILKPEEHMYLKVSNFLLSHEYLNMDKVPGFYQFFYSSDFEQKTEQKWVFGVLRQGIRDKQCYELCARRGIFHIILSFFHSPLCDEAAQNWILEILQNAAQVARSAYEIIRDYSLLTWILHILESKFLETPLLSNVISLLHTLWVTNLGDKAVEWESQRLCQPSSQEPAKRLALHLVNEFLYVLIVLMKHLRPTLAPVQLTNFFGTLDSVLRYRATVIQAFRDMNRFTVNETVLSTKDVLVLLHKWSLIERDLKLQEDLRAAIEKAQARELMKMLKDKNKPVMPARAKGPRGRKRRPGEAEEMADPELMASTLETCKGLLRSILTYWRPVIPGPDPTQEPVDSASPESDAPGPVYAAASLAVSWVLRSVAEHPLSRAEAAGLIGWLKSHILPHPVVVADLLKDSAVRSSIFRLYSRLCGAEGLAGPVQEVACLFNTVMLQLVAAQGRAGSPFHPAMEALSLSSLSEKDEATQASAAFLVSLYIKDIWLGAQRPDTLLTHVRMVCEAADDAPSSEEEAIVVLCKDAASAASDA
How it was run: as §1

CDC42BPB = CDC42BPB (human, UniProt Q9Y5S2 1-1711)
How it was run: as §1

Measured: binding result

Chain of EPG5 (Q9HCE0 whole entry, the tested form may be a part): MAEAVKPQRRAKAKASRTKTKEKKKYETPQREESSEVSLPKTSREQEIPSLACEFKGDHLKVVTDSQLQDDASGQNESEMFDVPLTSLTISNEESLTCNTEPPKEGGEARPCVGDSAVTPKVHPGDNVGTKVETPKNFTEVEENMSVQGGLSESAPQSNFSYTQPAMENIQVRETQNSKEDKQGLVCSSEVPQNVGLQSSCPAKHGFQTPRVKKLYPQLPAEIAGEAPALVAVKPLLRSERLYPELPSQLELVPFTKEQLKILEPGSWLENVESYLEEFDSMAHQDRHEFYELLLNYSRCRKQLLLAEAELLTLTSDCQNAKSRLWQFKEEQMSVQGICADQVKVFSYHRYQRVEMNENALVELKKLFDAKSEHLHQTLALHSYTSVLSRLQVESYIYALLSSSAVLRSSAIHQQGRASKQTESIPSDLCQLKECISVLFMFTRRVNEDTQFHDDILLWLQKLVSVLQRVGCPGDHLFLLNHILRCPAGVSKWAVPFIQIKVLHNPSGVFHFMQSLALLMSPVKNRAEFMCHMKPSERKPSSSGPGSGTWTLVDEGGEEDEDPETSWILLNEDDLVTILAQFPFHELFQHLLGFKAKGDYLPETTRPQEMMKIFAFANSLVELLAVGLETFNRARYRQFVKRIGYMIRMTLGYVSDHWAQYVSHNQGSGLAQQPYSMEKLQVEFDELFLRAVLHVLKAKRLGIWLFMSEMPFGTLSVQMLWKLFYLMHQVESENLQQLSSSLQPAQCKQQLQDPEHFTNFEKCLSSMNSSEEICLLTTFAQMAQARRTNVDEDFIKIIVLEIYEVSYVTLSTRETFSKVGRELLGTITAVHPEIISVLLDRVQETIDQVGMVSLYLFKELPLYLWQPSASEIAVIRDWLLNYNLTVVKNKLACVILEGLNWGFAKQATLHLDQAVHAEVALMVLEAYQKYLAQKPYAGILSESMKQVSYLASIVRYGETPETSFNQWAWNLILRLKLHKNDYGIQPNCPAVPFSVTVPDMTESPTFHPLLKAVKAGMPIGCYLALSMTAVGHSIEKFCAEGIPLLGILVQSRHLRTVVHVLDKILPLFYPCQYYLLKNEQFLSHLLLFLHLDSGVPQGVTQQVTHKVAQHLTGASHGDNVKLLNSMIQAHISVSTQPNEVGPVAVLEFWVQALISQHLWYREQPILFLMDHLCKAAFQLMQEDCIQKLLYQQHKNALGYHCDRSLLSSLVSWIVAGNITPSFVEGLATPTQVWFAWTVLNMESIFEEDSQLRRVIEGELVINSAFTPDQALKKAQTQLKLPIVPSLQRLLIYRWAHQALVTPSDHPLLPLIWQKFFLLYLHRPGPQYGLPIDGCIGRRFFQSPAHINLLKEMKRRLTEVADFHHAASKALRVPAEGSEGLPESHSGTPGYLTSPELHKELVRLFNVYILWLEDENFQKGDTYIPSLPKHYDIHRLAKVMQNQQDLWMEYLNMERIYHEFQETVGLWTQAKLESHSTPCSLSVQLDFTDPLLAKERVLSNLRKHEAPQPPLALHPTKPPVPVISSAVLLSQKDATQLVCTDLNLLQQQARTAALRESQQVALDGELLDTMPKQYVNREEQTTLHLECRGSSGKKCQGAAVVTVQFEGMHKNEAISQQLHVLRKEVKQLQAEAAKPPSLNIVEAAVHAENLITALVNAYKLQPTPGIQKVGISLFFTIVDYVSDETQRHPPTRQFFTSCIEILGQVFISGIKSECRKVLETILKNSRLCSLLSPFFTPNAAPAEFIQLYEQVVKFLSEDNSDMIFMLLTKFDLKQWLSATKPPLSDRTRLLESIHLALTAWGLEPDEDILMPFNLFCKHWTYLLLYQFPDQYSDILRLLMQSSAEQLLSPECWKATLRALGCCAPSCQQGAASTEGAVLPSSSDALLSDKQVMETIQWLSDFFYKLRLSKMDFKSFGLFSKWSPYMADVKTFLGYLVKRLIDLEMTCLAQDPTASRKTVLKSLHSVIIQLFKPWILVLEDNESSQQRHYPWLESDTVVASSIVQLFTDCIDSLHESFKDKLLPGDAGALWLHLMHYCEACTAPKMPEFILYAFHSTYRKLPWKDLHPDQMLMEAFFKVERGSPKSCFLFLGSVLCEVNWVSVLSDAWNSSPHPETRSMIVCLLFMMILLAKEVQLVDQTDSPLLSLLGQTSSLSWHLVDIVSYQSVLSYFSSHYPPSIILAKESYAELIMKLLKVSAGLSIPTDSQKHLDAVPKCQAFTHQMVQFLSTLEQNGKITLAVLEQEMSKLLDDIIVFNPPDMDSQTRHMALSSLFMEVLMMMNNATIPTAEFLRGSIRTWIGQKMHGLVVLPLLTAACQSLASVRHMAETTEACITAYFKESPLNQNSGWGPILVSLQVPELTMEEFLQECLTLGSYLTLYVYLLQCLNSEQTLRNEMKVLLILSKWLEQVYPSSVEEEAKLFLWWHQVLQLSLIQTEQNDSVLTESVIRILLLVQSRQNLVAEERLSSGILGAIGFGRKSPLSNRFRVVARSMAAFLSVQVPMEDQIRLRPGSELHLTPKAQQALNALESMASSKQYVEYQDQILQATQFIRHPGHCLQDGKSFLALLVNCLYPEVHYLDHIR

B1: LZTR1 R810W-FLAG (other, human, UniProt Q8N653 1-840, looked up)
chain: MAGPGSTGGQIGAAALAGGARSKVAPSVDFDHSCSDSVEYLTLNFGPFETVHRWRRLPPCDEFVGARRSKHTVVAYKDAIYVFGGDNGKTMLNDLLRFDVKDCSWCRAFTTGTPPAPRYHHSAVVYGSSMFVFGGYTGDIYSNSNLKNKNDLFEYKFATGQWTEWKIEGRLPVARSAHGATVYSDKLWIFAGYDGNARLNDMWTIGLQDRELTCWEEVAQSGEIPPSCCNFPVAVCRDKMFVFSGQSGAKITNNLFQFEFKDKTWTRIPTEHLLRGSPPPPQRRYGHTMVAFDRHLYVFGGAADNTLPNELHCYDVDFQTWEVVQPSSDSEVGGAEVPERACASEEVPTLTYEERVGFKKSRDVFGLDFGTTSAKQPTQPASELPSGRLFHAAAVISDAMYIFGGTVDNNIRSGEMYRFQFSCYPKCTLHEDYGRLWESRQFCDVEFVLGEKEECVQGHVAIVTARSRWLRRKITQARERLAQKLEQEAAPVPREAPGVAAGGARPPLLHVAIREAEARPFEVLMQFLYTDKIKYPRKGHVEDVLLIMDVYKLALSFQLCRLEQLCRQYIEASVDLQNVLVVCESAARLQLSQLKEHCLNFVVKESHFNQVIMMKEFERLSSPLIVEIVRRKQQPPPRTPLDQPVDIGTSLIQDMKAYLEGAGAEFCDITLLLDGHPRPAHKAILAARSSYFEAMFRSFMPEDGQVNISIGEMVPSRQAFESMLRYIYYGEVNMPPEDSLYLFAAPYYYGFYNNRLQAYCKQNLEMNVTVQNVLQILEAADKTQALDMKRHCLHIIVHQFTKVSKLPTLWSLSQQLLLDIIDSLASHISDKQCAELGADI
notes: Stably expressed in U87 cells by lentivirus; also called LZTR1-FLAG-R810W; LZTR1 RW; not shown: FLAG tag
binds: all assays above
